The values that follow come from patent publication US20220356255A1 (CENTESSA PHARMACEUTICALS UK, published 2022).

Usually EC50 stands for the concentration that produces a half-maximal response. By koff is commonly meant the first-order rate constant of dissociation. In general, IC50 refers to the concentration at which inhibition is half-maximal.

Numbering of substitutions follows the chain as printed. Where only a bound is given, the exact number is not on record here.

The chains are these.
B1: Fab 8B06 (Fab, V domains shown)
VH: QVQLVQSGGGVVQPGRSLRLSCAASGFTFSSYGMYWVRQAPGKGLEWVAVISYDGSNKYYADSVKGRFTISRDNSKNTLNLQMNSLRAEDTAVYYCAKGALTHWGVVIGDGMDVWGQGTTVTVSS
VL: NFMLTQPHSVSESPGKTVTISCRETELSRRLHYVRWYQQRPGSSPTTVIYEDDQRPSGVPDRFSGSIDSSSNSASLTISGLKTEDEADYYCQSFDSTNPWVFGGGTKLTVL
notes: Purified Fab prepared from IgG with the Pierce kit; also called 8B06 Fab
B2: Fab 8G08 (Fab, V domains shown)
VH: B1 VH
VL: B1 VL with R23I, E24S, T25N, E26D, L27V, S28P, R29A, R30S, L31G, V34H
notes: Purified Fab prepared from IgG with the Pierce kit; also called 8G08 Fab
B3: Fab 8A04 (Fab, V domains shown)
VH: B1 VH
VL: B1 VL with R23M, E24R, E26G, L27T, S28G, R29N, R30K, L31G, V34T
notes: Purified Fab prepared from IgG with the Pierce kit; also called 8A04 Fab
B4: Fab 8D04 (Fab, V domains shown)
VH: B1 VH
VL: B1 VL with E24G, E26G, L27S, R29F, R30H, L31H, H32K
notes: Purified Fab prepared from IgG with the Pierce kit; also called 8D04 Fab
B5: 8B06 mAb (antibody, V domains shown)
VH: B1 VH
VL: B1 VL
notes: Formatted into an IgG1; also called 8B06 IgG1
B6: 8D06 mAb (antibody, V domains shown)
VH: B1 VH
VL: B1 VL with R23V, E24L, T25S, E26P, L27R, S28T, R29H, R30A, L31G, V34Y
notes: Formatted into an IgG1; also called 8D06 IgG1
B7: 8G08 mAb (antibody, V domains shown)
VH: B1 VH
VL: B1 VL with R23I, E24S, T25N, E26D, L27V, S28P, R29A, R30S, L31G, V34H
notes: Formatted into an IgG1; also called 8G08 IgG1
B8: 8D04 mAb (antibody, V domains shown)
VH: B1 VH
VL: B1 VL with E24G, E26G, L27S, R29F, R30H, L31H, H32K
notes: Formatted into an IgG1; also called 8D04 IgG1
B9: 8A04 mAb (antibody, V domains shown)
VH: B1 VH
VL: B1 VL with R23M, E24R, E26G, L27T, S28G, R29N, R30K, L31G, V34T
notes: Formatted into an IgG1; also called 8A04 IgG1

For one test, the target named is T1, human PD-L1 on cells (human, UniProt Q9NZQ7 19-290).
T1 construct: Endogenous on MDA-MB-231 cells or transfected into HEK293FF cells (Sino Biological plasmid); the assay field says which; also called native PD-L1 on MDA-MB-231 cells; PD-L1 expressing MDA-MB-231 cells
T1 sequence (Q9NZQ7 19-290 limits assumed): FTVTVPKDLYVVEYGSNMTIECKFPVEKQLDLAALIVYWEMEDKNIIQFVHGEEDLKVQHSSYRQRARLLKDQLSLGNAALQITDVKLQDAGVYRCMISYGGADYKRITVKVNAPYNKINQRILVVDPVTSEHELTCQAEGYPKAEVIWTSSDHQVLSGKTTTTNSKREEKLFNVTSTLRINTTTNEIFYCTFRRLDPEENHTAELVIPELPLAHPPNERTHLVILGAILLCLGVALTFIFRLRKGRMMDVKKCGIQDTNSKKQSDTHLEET
As to the kind of experiment: flow cytometry on MDA-MB-231 cells, Krebs buffer, pH 6.5. How it is done: (§1) Anti-PD-L1 affinity matured Fabs were tested for their ability to bind to native PD-L1 in a cell line, (MDA-MB-231 cells) in a buffer resembling the tumor microenvironment (Krebs-lactate).
For orientation: Flow cytometry measures light scatter and fluorescence of single cells or particles in a stream.
In turn, B1 had an EC50 of 6.4 nM.

In the case of B2, a half-maximal effect (EC50) was put at 2.95 nM.

B3: the EC50 is 6.62 nM.

B4 had an EC50 of 56.4 nM.

A further test concerns the target T1, human PD-L1 on cells. As to the kind of experiment: flow cytometry on MDA-MB-231 cells, Krebs buffer; ratio of EC50 values. How it is done:
as §1
As for B1, the “Ratio pH 6:7.4” value is over 50.

Take B2: the “Ratio pH 6:7.4” value worked out at 8.35.

B3: the “Ratio pH 6:7.4” value was over 46.3.

Turning to B4, the “Ratio pH 6:7.4” value was over 7.41.

The target in another test is T1, human PD-L1 on cells. The test can be described thus: flow cytometry on MDA-MB-231 cells, pH 6.
In turn, B5 registered an EC50 of 0.14 nM.

The molecule B6 returned an EC50 of 0.11 nM.

Molecule B7 had an EC50 of 0.08 nM.

For B8, the EC50 was 0.11 nM.

The molecule B9 showed an EC50 of 0.09 nM.

The next test deals with T2, biotinylated human PD-L1 (human, UniProt Q9NZQ7 19-239, limits assumed, biotinylated (sites not given)).
T2 construct: Bought from R&D Systems; also called biotinylated-PD-L1; human PD-L1 biotin
T2 sequence (Q9NZQ7 19-239 limits assumed): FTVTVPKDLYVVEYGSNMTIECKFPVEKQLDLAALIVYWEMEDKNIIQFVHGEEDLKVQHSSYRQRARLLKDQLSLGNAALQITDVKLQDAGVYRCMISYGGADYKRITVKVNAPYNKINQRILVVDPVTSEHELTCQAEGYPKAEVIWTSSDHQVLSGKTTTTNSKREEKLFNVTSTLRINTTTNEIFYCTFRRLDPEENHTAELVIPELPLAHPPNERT
The test can be described thus: competition ELISA, Fab with biotinylated PD-L1 on coated PD-1-Fc, pH 6. (In general: In an ELISA, binding on a coated surface is turned into a signal by an enzyme label.)
B1: the “fold less (IC50) than the control Fab 2.7A04OPT at pH 6” value was about 3 fold.

Take B2: the “fold less (IC50) than the control Fab 2.7A04OPT at pH 6” value is about 3 fold.

For the molecule B3, the “fold less (IC50) than the control Fab 2.7A04OPT at pH 6” value was about 3 fold.

The next test concerns the target T2, biotinylated human PD-L1. As to the kind of experiment: competition ELISA, Fab with biotinylated PD-L1 on coated PD-1-Fc; ratio of IC50 values.
Consider B1, for which the “Ratio pH 6:7.4” value was over 6.37.

Take B2: the “Ratio pH 6:7.4” value is over 8.26.

For the molecule B3, the “Ratio pH 6:7.4” value was determined as 6.66.

For the molecule B4, the “Ratio pH 6:7.4” value was over 2.36.

A further test concerns the target T1, human PD-L1 on cells. As to the kind of experiment: flow cytometry on MDA-MB-231 cells, Krebs-lactate buffer, pH 6 versus pH 7.4. On the procedure:
In order to mimic an acidic tumor environment milieu with tumor cells expressing PD-L1 (The metabolism of tumors in the body, Warburg et al. J Gen Physiol. 1927; 8:519-30) the following buffers were utilised: Krebs ringer bicarbonate buffer (KRB, Amsbio catalog number KRB-1000) with 1 mM lactic acid (Sigma catalog number 252476-50DG) for pH 7.4; KRB plus 15 mM lactic acid for pH 6.5 and KRB plus 20 mM lactic acid for pH 6.0). 3 fold dilutions (100 nM to 0.0005 nM; 0) of the Fabs or IgG were prepared in the respective pH buffers and incubated with 0.60E05 MDA-MB-231 cells for 60 minutes at 4° C. The cells were then washed 3× with the respective pH buffers, at 300 g for 3 min. The cells were then incubated with 50 μl of anti-human IgG (Fab specific)-FITC (Sigma, catalog number F5512-1ML) at 1:100 dilution in the respective pH buffers. Binding of the IgG or Fab to PD-L1 expressing cells was measured by FACS (Attune Nxt) and a total of 10.000 cells were acquired per sample.
as §1
Regarding B1, the “pH binding preference (fold)” value is over 100 fold.

As for B3, the “pH binding preference (fold)” value is over 100 fold.

Regarding B4, the “pH binding preference (fold)” value was over 100 fold.

The target in another test is T3, human PD-L1-Fc protein (human, UniProt Q9NZQ7 19-239).
T3 construct: Bought from R&D Systems; also called immobilised PD-L1-Fc; not shown: Fc part of the bought fusion protein, not described
T3 sequence (Q9NZQ7 19-239 limits assumed): as above
As to the kind of experiment: ELISA, Fab on coated human PD-L1-Fc, pH 6.
For the molecule B1, the EC50 came out at 0.31 nM.

On to B2, for which the EC50 is 0.1 nM.

For the molecule B3, it took 0.54 nM to reach a half-maximal effect (EC50).

As for B4, it took 2.63 nM to reach a half-maximal effect (EC50).

For another test, the target named is T3, human PD-L1-Fc protein. As to the kind of experiment: BIAcore off rate, unpurified periplasmic extract Fab on PD-L1. On the technique in general: Surface plasmon resonance follows binding to a sensor surface in real time, without labels.
In the case of B1, the “Ratio pH 6 vs 7.4” value amounted to 13.

B2: the “Ratio pH 6 vs 7.4” value is 27.

Take B3: the “Ratio pH 6 vs 7.4” value was determined as 9.

With B4, the “Ratio pH 6 vs 7.4” value was determined as 10.

The target in a further test is T1, human PD-L1 on cells. The test can be described thus: flow cytometry on MDA-MB-231 cells, Krebs buffer, pH 7.4. On the procedure:
as §1
For B1, the EC50 was over 100 nM.

The molecule B2 showed an EC50 of 13.2 nM.

In turn, B3 displayed an EC50 of over 100 nM.

B4 displayed an EC50 of over 100 nM.

The target of another test is T2, biotinylated human PD-L1. As to the kind of experiment: competition ELISA, Fab with biotinylated PD-L1 on coated PD-1-Fc.
Take B1: the “fold less inhibitory activity at pH 6.5 than at pH 6” value (“fold less inhibitory activity” for short) is about 3 fold.

On to B2, for which the “fold less inhibitory activity” value was about 3 fold.

Take B3: the “fold less inhibitory activity” value was about 3 fold.

As for B4, the “fold less potent than Fabs 8D06, 8A04, 8G08 and 8B06” value is about 3 fold.

The target in the next test is T3, human PD-L1-Fc protein. The test can be described thus: ELISA, purified Fab on coated human PD-L1-Fc, pH 6 (FIG. 4).
For B1, the “concentration at saturation of binding” value is 4 nM.

As to B2, the “concentration at saturation of binding” value turned out to be 4 nM.

In the case of B3, the “concentration at saturation of binding” value is 4 nM.

B4: the “concentration at saturation of binding” value was found to be 4 nM.

For a further test, the target named is T1, human PD-L1 on cells. As to the kind of experiment: flow cytometry on MDA-MB-231 cells, pH 6.5.
For the molecule B5, it took 0.17 nM to reach a half-maximal effect (EC50).

Regarding B6, a half-maximal effect (EC50) was put at 0.11 nM.

B7 gave an EC50 of 0.07 nM.

Molecule B8 returned an EC50 of 0.13 nM.

Take B9: the EC50 was found to be 0.11 nM.

The target in a further test is T3, human PD-L1-Fc protein. As to the kind of experiment: ELISA, Fab on coated human PD-L1-Fc, pH 7.4.
B1 registered an EC50 of over 100 nM.

Turning to B2, the EC50 was over 100 nM.

B3 displayed an EC50 of over 10 nM.

Molecule B4 displayed an EC50 of over 100 nM.

The target in the next test is T3, human PD-L1-Fc protein. As to the kind of experiment: BIAcore off rate, unpurified periplasmic extract Fab on PD-L1, pH 6.
Regarding B1, the koff was 0.00135 s⁻¹.

B2 came in with a koff of 0.000823 s⁻¹.

As to B3, the dissociation rate constant (koff) was 0.00131 s⁻¹.

Molecule B4 registered a koff of 0.00283 s⁻¹.

Another test has as its target T3, human PD-L1-Fc protein. As to the kind of experiment: BIAcore off rate, unpurified periplasmic extract Fab on PD-L1, pH 7.4.
As for B1, the koff is 0.0105 s⁻¹.

B2 came in with a koff of 0.00308 s⁻¹.

For B3, the koff turned out to be 0.015 s⁻¹.

B4 displayed a koff of 0.0275 s⁻¹.

The next test has as its target T3, human PD-L1-Fc protein. The test can be described thus: ELISA, Fab on coated human PD-L1-Fc; ratio from extrapolating an OD of 0.3 at pH 6 versus pH 7.4.
Turning to B1, the “Ratio pH 6:7.4” value is 38.

On to B2, for which the “Ratio pH 6:7.4” value was 53.

On to B3, for which the “Ratio pH 6:7.4” value was 11.

For the molecule B4, the “Ratio pH 6:7.4” value is 9.

For another test, the target named is T1, human PD-L1 on cells. As to the kind of experiment: flow cytometry on MDA-MB-231 cells, Krebs buffer, pH 6. How it is done: as §1
For the molecule B1, it took 2 nM to reach a half-maximal effect (EC50).

In the case of B2, the EC50 was found to be 1.58 nM.

In turn, B3 returned an EC50 of 2.16 nM.

Molecule B4 registered an EC50 of 13.5 nM.

The target of the next test is T2, biotinylated human PD-L1. As to the kind of experiment: competition ELISA, Fab with biotinylated PD-L1 on coated PD-1-Fc, pH 7.4.
Molecule B1 returned an IC50 of over 100 nM.

Molecule B2 came in with an IC50 of over 100 nM.

B3 yielded a half-maximal inhibitory concentration (IC50) of 81.2 nM.

Turning to B4, the IC50 was over 100 nM.

The next test deals with T1, human PD-L1 on cells. As to the kind of experiment: flow cytometry on MDA-MB-231 cells, pH 7.4.
B5 returned an EC50 of 0.12 nM.

Molecule B6 yielded an EC50 of 0.08 nM.

With B7, the EC50 was found to be 0.09 nM.

Molecule B8 returned an EC50 of 0.1 nM.

Turning to B9, the midpoint of the response, the EC50, lay at 0.09 nM.

A further test deals with T2, biotinylated human PD-L1. As to the kind of experiment: competition ELISA, Fab with biotinylated PD-L1 on coated PD-1-Fc, pH 6. This is another data set of the same source.
Molecule B1 had an IC50 of 15.7 nM.

B2 displayed an IC50 of 12.1 nM.

For the molecule B3, the IC50 is 12.2 nM.

With B4, the IC50 was 42.3 nM.

In another test the target is T2, biotinylated human PD-L1. As to the kind of experiment: competition ELISA, Fab with biotinylated PD-L1 on coated PD-1-Fc, pH 6.5.
The molecule B1 had an IC50 of 52.7 nM.

B2: the IC50 came out at 41.6 nM.

Take B3: the IC50 stood at 29.4 nM.

As for B4, the IC50 was over 100 nM.
